T1: Human TRF1 (human), P54274
T1 chain: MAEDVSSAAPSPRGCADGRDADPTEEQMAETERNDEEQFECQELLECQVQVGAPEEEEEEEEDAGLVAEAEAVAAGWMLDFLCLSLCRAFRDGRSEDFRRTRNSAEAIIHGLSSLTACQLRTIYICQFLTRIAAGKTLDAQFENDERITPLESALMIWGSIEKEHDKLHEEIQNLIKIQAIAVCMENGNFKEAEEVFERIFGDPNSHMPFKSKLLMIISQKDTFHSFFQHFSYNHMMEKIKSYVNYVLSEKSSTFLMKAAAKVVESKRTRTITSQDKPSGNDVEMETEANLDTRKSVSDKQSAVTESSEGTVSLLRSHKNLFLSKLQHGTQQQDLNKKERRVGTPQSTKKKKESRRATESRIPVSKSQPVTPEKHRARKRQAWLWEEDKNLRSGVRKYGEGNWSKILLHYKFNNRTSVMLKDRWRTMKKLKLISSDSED

T2: Human TRF2 (human), Q15554
T2 chain: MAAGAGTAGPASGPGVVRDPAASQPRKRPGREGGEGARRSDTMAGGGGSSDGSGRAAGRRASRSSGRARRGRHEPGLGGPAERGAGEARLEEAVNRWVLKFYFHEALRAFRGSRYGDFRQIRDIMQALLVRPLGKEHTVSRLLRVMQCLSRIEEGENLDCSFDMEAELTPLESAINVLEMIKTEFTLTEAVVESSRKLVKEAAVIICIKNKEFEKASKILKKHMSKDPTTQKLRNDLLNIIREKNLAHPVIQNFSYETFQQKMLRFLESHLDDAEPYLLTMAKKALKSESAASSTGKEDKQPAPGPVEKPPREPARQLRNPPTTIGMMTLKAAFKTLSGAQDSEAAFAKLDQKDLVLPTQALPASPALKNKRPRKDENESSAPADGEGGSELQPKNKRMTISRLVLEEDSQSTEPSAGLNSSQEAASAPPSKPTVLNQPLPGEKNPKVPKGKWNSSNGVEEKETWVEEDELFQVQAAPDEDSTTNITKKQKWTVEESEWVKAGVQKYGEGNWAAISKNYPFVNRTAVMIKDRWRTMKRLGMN

T3: Human TIN2 (human, UniProt Q9BSI4-2 1-354)
T3 construct: cDNA cloned into pFastBac1; called full-length in the discussion; not shown: His6, N-terminal, cleaved; MBP, N-terminal, cleaved
T3 sequence (looked up): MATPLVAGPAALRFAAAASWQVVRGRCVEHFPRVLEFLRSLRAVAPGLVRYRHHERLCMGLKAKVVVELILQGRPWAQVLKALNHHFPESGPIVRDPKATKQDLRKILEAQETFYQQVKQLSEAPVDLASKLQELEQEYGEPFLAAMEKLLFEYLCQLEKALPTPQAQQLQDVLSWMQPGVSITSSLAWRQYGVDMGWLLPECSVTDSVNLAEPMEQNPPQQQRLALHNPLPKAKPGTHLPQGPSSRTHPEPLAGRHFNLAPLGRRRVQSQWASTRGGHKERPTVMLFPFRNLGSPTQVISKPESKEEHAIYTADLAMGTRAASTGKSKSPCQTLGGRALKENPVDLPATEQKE

B1: mCherry-TIN2S (natural protein)
chain: MATPLVAGPAALRFAAAASWQVVRGRCVEHFPRVLEFLRSLRAVAPGLVRYRHHERLCMGLKAKVVVELILQGRPWAQVLKALNHHFPESGPIVRDPKATKQDLRKILEAQETFYQQVKQLSEAPVDLASKLQELEQEYGEPFLAAMEKLLFEYLCQLEKALPTPQAQQLQDVLSWMQPGVSITSSLAWRQYGVDMGWLLPECSVTDSVNLAEPMEQNPPQQQRLALHNPLPKAKPGTHLPQGPSSRTHPEPLAGRHFNLAPLGRRRVQSQWASTRGGHKERPTVMLFPFRNLGSPTQVISKPESKEEHAIYTADLAMGTRAASTGKSKSPCQTLGGRALKENPVDLPATEQKE
B2: Human TRF1, P54274-1 1-439 (natural protein)
chain: MAEDVSSAAPSPRGCADGRDADPTEEQMAETERNDEEQFECQELLECQVQVGAPEEEEEEEEDAGLVAEAEAVAAGWMLDFLCLSLCRAFRDGRSEDFRRTRNSAEAIIHGLSSLTACQLRTIYICQFLTRIAAGKTLDAQFENDERITPLESALMIWGSIEKEHDKLHEEIQNLIKIQAIAVCMENGNFKEAEEVFERIFGDPNSHMPFKSKLLMIISQKDTFHSFFQHFSYNHMMEKIKSYVNYVLSEKSSTFLMKAAAKVVESKRTRTITSQDKPSGNDVEMETEANLDTRKSVSDKQSAVTESSEGTVSLLRSHKNLFLSKLQHGTQQQDLNKKERRVGTPQSTKKKKESRRATESRIPVSKSQPVTPEKHRARKRQAWLWEEDKNLRSGVRKYGEGNWSKILLHYKFNNRTSVMLKDRWRTMKKLKLISSDSED
B3: Human TRF2, Q15554 1-542 (natural protein)
chain: MAAGAGTAGPASGPGVVRDPAASQPRKRPGREGGEGARRSDTMAGGGGSSDGSGRAAGRRASRSSGRARRGRHEPGLGGPAERGAGEARLEEAVNRWVLKFYFHEALRAFRGSRYGDFRQIRDIMQALLVRPLGKEHTVSRLLRVMQCLSRIEEGENLDCSFDMEAELTPLESAINVLEMIKTEFTLTEAVVESSRKLVKEAAVIICIKNKEFEKASKILKKHMSKDPTTQKLRNDLLNIIREKNLAHPVIQNFSYETFQQKMLRFLESHLDDAEPYLLTMAKKALKSESAASSTGKEDKQPAPGPVEKPPREPARQLRNPPTTIGMMTLKAAFKTLSGAQDSEAAFAKLDQKDLVLPTQALPASPALKNKRPRKDENESSAPADGEGGSELQPKNKRMTISRLVLEEDSQSTEPSAGLNSSQEAASAPPSKPTVLNQPLPGEKNPKVPKGKWNSSNGVEEKETWVEEDELFQVQAAPDEDSTTNITKKQKWTVEESEWVKAGVQKYGEGNWAAISKNYPFVNRTAVMIKDRWRTMKRLGMN
B4: Human TRF2 (natural protein, UniProt Q15554 1-542, looked up)
chain: MAAGAGTAGPASGPGVVRDPAASQPRKRPGREGGEGARRSDTMAGGGGSSDGSGRAAGRRASRSSGRARRGRHEPGLGGPAERGAGEARLEEAVNRWVLKFYFHEALRAFRGSRYGDFRQIRDIMQALLVRPLGKEHTVSRLLRVMQCLSRIEEGENLDCSFDMEAELTPLESAINVLEMIKTEFTLTEAVVESSRKLVKEAAVIICIKNKEFEKASKILKKHMSKDPTTQKLRNDLLNIIREKNLAHPVIQNFSYETFQQKMLRFLESHLDDAEPYLLTMAKKALKSESAASSTGKEDKQPAPGPVEKPPREPARQLRNPPTTIGMMTLKAAFKTLSGAQDSEAAFAKLDQKDLVLPTQALPASPALKNKRPRKDENESSAPADGEGGSELQPKNKRMTISRLVLEEDSQSTEPSAGLNSSQEAASAPPSKPTVLNQPLPGEKNPKVPKGKWNSSNGVEEKETWVEEDELFQVQAAPDEDSTTNITKKQKWTVEESEWVKAGVQKYGEGNWAAISKNYPFVNRTAVMIKDRWRTMKRLGMN
notes: called full-length in the discussion; predicted dimer mass printed as 119 kDa; source: Tni insect cells (baculovirus), alone or co-expressed with other shelterin proteins, purified (final SEC)

What was measured:
Human TIN2 (human) = Human TIN2 (human) (UniProt Q9BSI4); assay: SEC-MALS; purified proteins or co-expressed, purified complexes at 1 mg ml^−1, 100 µl on Superose 6 Increase 10/300 GL, 0.5 ml min^−1, 25 °C, 50 mM HEPES pH 7.5, 300 mM NaCl, 1 mM TCEP
mCherry-TIN2S, Q9BSI4-2 = assay: LacI-LacO array fluorescence colocalization in cells; settings: U2OS 2-6-3 cell line; n > 50 nuclei per construct from 3 biological replicates; parent: est. 0.90; read off a plot
[1] = target: eGFP–TPP1_(480–544)–LacI (human); assay: LacI–LacO array recruitment (fluorescence colocalisation); eGFP–TPP1–LacI constructs tethered to a LacO array in U2-OS 2-6-3 cells, co-transfected with mCherry-TIN2S; fixed 24 h after transfection; fraction of nuclei with mCherry at the single GFP focus
Chain of eGFP–TPP1_(480–544)–LacI (human) (Q96AP0 whole entry): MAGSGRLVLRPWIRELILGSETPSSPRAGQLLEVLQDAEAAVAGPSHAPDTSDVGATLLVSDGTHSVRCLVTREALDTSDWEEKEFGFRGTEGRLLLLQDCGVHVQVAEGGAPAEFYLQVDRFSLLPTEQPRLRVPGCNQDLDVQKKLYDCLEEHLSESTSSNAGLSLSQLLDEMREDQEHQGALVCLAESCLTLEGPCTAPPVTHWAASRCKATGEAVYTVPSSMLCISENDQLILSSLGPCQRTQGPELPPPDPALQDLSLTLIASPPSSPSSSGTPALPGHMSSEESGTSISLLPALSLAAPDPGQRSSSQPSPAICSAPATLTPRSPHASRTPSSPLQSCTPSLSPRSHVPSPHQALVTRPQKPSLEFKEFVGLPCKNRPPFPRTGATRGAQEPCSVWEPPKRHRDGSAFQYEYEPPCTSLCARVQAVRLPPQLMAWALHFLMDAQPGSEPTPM

eGFP–TPP1–LacI (human) = eGFP–TPP1–LacI (human) (UniProt Q96AP0); assay: as above
Chain of eGFP–TPP1–LacI (human) (Q96AP0 whole entry): as above

[2] = target: T1, Human TRF1 (human), P54274; assay: SEC-MALS; purified proteins or co-expressed, purified complexes at 1 mg ml^−1, 100 µl on Superose 6 Increase 10/300 GL, 0.5 ml min^−1, 25 °C, 50 mM HEPES pH 7.5, 300 mM NaCl, 1 mM TCEP; settings: remark: other sources report otherwise
[3] = target: T2, Human TRF2 (human), Q15554; assay: as above; settings: remark: other sources report otherwise
Human TIN2 = target: T3, Human TIN2; assay: as above; settings: both partners purified

| Molecule | other: fraction of colocalization (mCherry-TIN2S, Q9BSI4-2) | also measured |
| --- | --- | --- |
| Human TPP1 (from UniProt Q96AP0 1-458) (natural protein) | – | stoichiometry N (TPP1 per TIN2) (Human TIN2 (human)): 1 |
| eGFP–TPP1–LacI (from UniProt Q96AP0) NAAIRS 480 (six residues starting at 480 replaced by NAAIRS) | 0.92 | – |
| eGFP–TPP1–LacI (from UniProt Q96AP0) NAAIRS 486 (six residues starting at 486 replaced by NAAIRS) | 0.94 | – |
| eGFP–TPP1–LacI (from UniProt Q96AP0) NAAIRS 492 (six residues starting at 492 replaced by NAAIRS) | 0.93 | – |
| eGFP–TPP1–LacI (from UniProt Q96AP0) NAAIRS 498 (six residues starting at 498 replaced by NAAIRS) | 0.88 | – |
| eGFP–TPP1–LacI (from UniProt Q96AP0) NAAIRS 504 (six residues starting at 504 replaced by NAAIRS) | 0.92 | – |
| eGFP–TPP1–LacI (from UniProt Q96AP0) NAAIRS 510 (six residues starting at 510 replaced by NAAIRS) | 0.88 | – |
| eGFP–TPP1–LacI (from UniProt Q96AP0) NAAIRS 516 (six residues starting at 516 replaced by NAAIRS) | 0.93 | – |
| eGFP–TPP1–LacI (from UniProt Q96AP0) NAAIRS 522 (six residues starting at 522 replaced by NAAIRS) | 0.87 | – |
| eGFP–TPP1–LacI (from UniProt Q96AP0) NAAIRS 534 (six residues starting at 534 replaced by NAAIRS) | 0.93 | – |
| eGFP–TPP1–LacI (from UniProt Q96AP0) NAAIRS 539 (six residues starting at 539 replaced by NAAIRS) | 0.96 | – |
| B1 | – | fraction of LacO sites with colocalisation [1]: 90%; fraction of LacO sites with colocalisation (eGFP–TPP1–LacI (human)): 90% |
| B2 | – | stoichiometry N (subunits in the oligomer) [2]: 2 |
| B3 | – | stoichiometry N (subunits in the oligomer) [3]: 2 |
| B4 | – | stoichiometry N (Human TIN2): 2 TRF2 per TIN2 |

Reference: paper PMC5651854, “Reconstitution of human shelterin complexes reveals unexpected stoichiometry and dual pathways to enhance telomerase processivity” (Nature Communications, 2017)
